Results on 1 molecule are retold here after patent publication US6872808 (CORVAS INTERNATIONAL, dated 2005).

For one assay, the target named is human alpha-thrombin (human, UniProt P00734 328-622). Briefly: cell-based or functional assay.
In another assay the target is human Factor XIa (human, UniProt P03951 19-625). Briefly: cell-based or functional assay.
For the next assay, the target named is T1, human Factor XIIa (human, UniProt P00748 20-615).
T1 sequence: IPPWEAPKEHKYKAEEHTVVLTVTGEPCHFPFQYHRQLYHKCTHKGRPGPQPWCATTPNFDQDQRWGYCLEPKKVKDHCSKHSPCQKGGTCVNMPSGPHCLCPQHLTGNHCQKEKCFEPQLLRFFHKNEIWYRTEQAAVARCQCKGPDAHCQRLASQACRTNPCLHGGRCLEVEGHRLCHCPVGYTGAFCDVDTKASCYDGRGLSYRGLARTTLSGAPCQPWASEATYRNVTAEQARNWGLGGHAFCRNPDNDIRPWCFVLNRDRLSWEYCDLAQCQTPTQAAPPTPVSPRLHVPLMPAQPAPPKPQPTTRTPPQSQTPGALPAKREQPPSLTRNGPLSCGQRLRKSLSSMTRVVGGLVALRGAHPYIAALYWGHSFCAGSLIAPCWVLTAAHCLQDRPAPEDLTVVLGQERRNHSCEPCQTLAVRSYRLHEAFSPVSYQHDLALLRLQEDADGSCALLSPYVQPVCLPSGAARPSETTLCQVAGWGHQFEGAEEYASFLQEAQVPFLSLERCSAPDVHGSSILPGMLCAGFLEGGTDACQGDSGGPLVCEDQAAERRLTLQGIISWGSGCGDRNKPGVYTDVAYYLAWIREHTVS
Briefly: cell-based or functional assay.

The target in a further assay is human kallikrein (human, UniProt P03952 20-638). Briefly: cell-based or functional assay.
Assay [1] has as its target human activated protein C (human, UniProt P04070 43-461). Briefly: cell-based or functional assay.
The target in the next assay is human plasmin (human, UniProt P00747 97-810). Briefly: cell-based or functional assay.
For assay [2], the target named is recombinant tissue plasminogen activator (human, UniProt P00750 36-562). Briefly: cell-based or functional assay.
A further assay addresses human urokinase (human, UniProt P00749 156-431). Briefly: cell-based or functional assay.
In assay [3] the target is bovine pancreatic chymotrypsin (bovine, UniProt P00766 1-245). Briefly: cell-based or functional assay.
Another assay deals with human pancreatic trypsin (human, UniProt P07477 24-247). Briefly: cell-based or functional assay.
The target of the next assay is human factor Xa (human, UniProt P00742 41-179; P00742 235-488). Briefly: cell-based or functional assay.
Assay [4] has as its target T2, rFVIIa/rTF/PLV complex (human, UniProt P08709 61-466; P13726 33-295).
T2 construct: Complex formed in HBSA with CaCl2 on phosphatidyl choline/phosphatidyl serine vesicles; also called fVIIa/TF; FVIIa/TF
Briefly: rFVIIa/rTF/PLV amidolytic assay (S-2288), no FXa addition; apparent Ki*.

Assay [5] has as its target T2, rFVIIa/rTF/PLV complex. Briefly: rFVIIa/rTF/PLV amidolytic assay (S-2288) plus 2.5 nM EGR-FXa; apparent Ki*.

T2 sequence (P08709 61-466 limits assumed, chain 1 of 2): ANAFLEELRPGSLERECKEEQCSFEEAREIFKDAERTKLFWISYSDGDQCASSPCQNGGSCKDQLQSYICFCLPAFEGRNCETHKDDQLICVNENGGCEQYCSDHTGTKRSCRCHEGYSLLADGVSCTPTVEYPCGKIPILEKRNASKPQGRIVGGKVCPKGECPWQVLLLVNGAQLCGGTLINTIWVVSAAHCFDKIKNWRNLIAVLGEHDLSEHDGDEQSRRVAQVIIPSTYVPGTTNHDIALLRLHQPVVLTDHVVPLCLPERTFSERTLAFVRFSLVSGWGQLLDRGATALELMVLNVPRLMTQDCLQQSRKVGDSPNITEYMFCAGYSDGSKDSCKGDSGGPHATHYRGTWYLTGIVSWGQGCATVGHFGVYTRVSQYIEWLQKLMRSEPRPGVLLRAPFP
T2 sequence (P13726 33-295 limits assumed, chain 2 of 2): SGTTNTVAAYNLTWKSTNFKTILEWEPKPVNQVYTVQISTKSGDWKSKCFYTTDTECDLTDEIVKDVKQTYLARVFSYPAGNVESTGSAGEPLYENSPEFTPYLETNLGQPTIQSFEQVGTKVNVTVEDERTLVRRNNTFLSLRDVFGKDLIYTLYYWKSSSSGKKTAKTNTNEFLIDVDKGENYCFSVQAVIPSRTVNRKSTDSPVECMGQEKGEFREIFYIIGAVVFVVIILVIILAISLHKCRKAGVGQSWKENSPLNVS
Chain of human plasmin (P00747 97-810 limits assumed): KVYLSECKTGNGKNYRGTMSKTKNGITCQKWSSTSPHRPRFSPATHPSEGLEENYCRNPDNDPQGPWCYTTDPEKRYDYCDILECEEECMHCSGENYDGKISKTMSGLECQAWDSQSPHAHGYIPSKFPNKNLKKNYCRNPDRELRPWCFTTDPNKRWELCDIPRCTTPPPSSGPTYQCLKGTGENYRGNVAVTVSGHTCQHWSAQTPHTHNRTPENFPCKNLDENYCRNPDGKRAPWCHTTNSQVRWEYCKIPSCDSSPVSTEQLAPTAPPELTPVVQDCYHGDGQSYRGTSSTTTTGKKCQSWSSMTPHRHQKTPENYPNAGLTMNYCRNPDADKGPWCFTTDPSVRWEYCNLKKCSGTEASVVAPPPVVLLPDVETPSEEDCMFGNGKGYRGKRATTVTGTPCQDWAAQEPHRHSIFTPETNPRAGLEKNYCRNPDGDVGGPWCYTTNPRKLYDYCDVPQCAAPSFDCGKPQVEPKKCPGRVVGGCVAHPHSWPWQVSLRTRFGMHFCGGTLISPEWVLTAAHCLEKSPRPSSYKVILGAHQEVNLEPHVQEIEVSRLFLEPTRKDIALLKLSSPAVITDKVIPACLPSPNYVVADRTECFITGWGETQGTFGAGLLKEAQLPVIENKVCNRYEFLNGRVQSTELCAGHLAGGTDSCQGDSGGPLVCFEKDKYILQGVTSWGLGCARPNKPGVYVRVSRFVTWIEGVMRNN
Chain of recombinant tissue plasminogen activator (P00750 36-562 limits assumed): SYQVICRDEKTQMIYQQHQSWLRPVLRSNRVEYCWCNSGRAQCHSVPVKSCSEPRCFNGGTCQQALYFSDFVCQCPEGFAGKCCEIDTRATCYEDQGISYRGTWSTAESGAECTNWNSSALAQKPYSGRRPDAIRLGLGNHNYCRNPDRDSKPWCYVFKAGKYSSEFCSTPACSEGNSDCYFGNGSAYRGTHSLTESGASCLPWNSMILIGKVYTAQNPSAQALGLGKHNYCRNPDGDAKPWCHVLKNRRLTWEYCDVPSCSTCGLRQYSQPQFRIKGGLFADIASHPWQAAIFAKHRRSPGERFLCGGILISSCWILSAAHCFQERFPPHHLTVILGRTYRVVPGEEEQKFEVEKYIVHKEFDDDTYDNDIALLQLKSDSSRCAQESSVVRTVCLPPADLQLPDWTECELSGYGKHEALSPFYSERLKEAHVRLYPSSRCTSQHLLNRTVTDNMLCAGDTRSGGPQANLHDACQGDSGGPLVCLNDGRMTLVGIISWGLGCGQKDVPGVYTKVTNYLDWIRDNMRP
Chain of human kallikrein (P03952 20-638 limits assumed): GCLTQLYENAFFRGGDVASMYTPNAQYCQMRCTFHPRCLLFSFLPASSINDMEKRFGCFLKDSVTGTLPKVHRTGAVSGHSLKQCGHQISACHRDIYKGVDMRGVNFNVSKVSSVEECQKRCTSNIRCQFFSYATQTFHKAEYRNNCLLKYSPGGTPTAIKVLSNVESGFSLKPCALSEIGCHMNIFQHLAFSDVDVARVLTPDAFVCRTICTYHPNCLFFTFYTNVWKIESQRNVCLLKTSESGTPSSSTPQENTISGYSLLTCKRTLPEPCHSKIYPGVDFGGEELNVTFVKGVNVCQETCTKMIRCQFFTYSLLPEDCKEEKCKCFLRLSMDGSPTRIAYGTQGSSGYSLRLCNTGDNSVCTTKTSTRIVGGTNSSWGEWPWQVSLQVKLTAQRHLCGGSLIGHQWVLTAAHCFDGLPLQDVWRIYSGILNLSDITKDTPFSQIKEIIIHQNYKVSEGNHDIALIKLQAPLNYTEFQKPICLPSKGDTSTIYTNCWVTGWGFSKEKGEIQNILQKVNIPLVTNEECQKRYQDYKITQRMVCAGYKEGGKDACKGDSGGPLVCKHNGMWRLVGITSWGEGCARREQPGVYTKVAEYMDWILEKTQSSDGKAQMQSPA
Chain of human factor Xa (P00742 41-179 limits assumed, chain 1 of 2): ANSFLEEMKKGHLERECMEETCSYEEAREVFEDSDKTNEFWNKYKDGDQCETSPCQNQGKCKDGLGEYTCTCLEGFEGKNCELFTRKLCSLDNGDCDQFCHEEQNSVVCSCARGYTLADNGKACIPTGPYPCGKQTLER
Chain of human factor Xa (P00742 235-488 limits assumed, chain 2 of 2): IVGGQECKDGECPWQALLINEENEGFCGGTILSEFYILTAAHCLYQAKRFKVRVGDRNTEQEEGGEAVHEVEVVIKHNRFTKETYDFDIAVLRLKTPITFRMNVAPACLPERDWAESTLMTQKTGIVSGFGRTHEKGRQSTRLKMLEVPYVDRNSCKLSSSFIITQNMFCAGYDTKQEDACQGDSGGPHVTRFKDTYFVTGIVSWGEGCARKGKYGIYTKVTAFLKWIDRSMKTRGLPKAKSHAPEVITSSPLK

B1: recombinant AceNAP4 (other)
chain: KPNNVMTNACGLNEYFAECGNMKECEHRCNEEENEERDEERITACLIRVCFRPGACVCKDGFYRNRTGSCVEEDDCEYENMEFITFAPEVPICGSNERYSDCGNDKQCERKCNEDDYEKGDEACRSHVCERPGACVCEDGFYRNKKGSCVESDDCEYDNMDFITFAPETSR
notes: Two NAP domains
B1: the “% Control Velocity (amidolytic activity; 75 nM NAP, 750 pM enzyme)” value with human alpha-thrombin came out at 93%; in the assay with human Factor XIa, 96%; in the assay with human Factor XIIa, 102%; in the assay with human kallikrein it was 32%; in assay [1], 103%; in the assay with human plasmin it was 100%. In addition, the “% Control Velocity (amidolytic activity; 75 nM NAP, 750 pM enzyme)” value in assay [2] amounted to 108%; with human urokinase, 103%; in assay [3], 96%; with human pancreatic trypsin, 98%; with human factor Xa, 76%. Moreover, the Ki came out at 59.2 nM with rFVIIa/rTF/PLV complex [4] and 0.378 nM in the assay with rFVIIa/rTF/PLV complex [5].
